{"source": "patent US20240279341A1", "about": "(Alector, published 2024)", "binders": {"B1": {"name": "bivalent anti-MerTK antibody MTK-33.11 (full IgG) (antibody, V domains shown)", "VH": "QVQLVQSGAEVKKPGASVKVSCKASGYTFTSYWMHWVRQAPGQGLEWIGVIDPSDNYINYNQKFQGRVTMTRDTSTSTVYMELSSLRSEDTAVYYCAREAWTRGYFDYWGQGTLVTVSS", "VL": "DIQMTQSPSSLSASVGDRVTITCQASRSVRNTVAWYQQKPGKAPKLLIYYASNRYTGVPSRFSGSGSGTDFTFTISSLQPEDIATYYCQQDYRSPFTFGQGTKLEIKR"}, "B2": {"name": "bivalent anti-MerTK antibody MTK-16.2 (full IgG) (antibody, V domains shown)", "VH": "QVQLVQSGSELKKPGASVKVSCKASGYTFTNHGMNWVRQAPGQGLEWMGWINTYTGEPTYADDFKGRFVFSLDTSVSTAYLQISSLKAEDTAVYYCARKGVTAARYFDYWGQGTLVTVSS", "VL": "DIQMTQSPSSLSASVGDRVTITCRASQNVRTAVAWYQQKPGKAPKRLIYLASNRHTGVPSRFSGSGSGTEFTLTISNLQPEDFATYYCLQHWNYPLTFGGGTKLEIKR"}}, "key": {"[1]": {"target": "T1, human PDL1 (human, UniProt Q9NZQ7 19-290)", "T1 construct": "whole, on cells; Also used as the target for the monovalent anti-PDL1 antibody on M2c-differentiated human macrophages (endogenous PDL1); also called huPDL1; programmed death-ligand 1", "T1 sequence (Q9NZQ7 19-290)": "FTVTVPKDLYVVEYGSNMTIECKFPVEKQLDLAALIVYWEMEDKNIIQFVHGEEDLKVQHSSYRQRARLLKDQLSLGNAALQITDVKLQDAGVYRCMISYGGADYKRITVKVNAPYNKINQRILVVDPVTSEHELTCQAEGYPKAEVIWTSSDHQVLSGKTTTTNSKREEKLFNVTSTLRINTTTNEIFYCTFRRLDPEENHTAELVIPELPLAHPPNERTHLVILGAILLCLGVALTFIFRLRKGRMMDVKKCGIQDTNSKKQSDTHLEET", "experiment": "flow cytometry, Dylight650-conjugated antibody on CHO-huPDL1 OE cells, MFI", "procedure": "(§1) To determine whether bispecific anti-MerTK:anti-PDL1 antibodies of the present disclosure bind to different cell types, the following experiments were performed. Cells used in these studies included CHO cells overexpressing human MerTK (CHO-human MerTK OE cells), CHO cells overexpressing human PDL1 (CHO-human PDL1 OE cells), and M2c-differentiated human macrophages.\n(§2) Human macrophages were differentiated from human monocytes for 7 days in the presence of human M-CSF, resulting in M2c-differentiated human macrophages. After 7 days, the differentiated human macrophages were harvested (by scraping), resuspended in PBS, and plated on 96-well plates for use. CHO cells overexpressing human MerTK (CHO-huMerTK OE), CHO cells overexpressing human PDL1 (CHO-huPDL1 OE), and M2c-differentiated human macrophages were stained with Dylight650-conjugated bispecific anti-MerTK:anti-PDL1 antibodies, or bivalent anti-MerTK antibodies for 30 min on ice. A range of antibody concentrations were used in these studies to obtain binding curves. All antibodies tested in these studies were IgG1 having Fc regions comprising LALAPS mutations. Cells were fixed and then acquired on a BD FACS Canto II cytometer. The mean fluorescence intensity (MFI) was calculated using FlowJo software and Kd value was calculated using Prism software."}, "[2]": {"target": "T2, human MerTK overexpressed on CHO cells (human, UniProt Q12866 21-999)", "T2 construct": "also called CHO-huMerTK OE; CHO-human MerTK OE cells", "T2 sequence": "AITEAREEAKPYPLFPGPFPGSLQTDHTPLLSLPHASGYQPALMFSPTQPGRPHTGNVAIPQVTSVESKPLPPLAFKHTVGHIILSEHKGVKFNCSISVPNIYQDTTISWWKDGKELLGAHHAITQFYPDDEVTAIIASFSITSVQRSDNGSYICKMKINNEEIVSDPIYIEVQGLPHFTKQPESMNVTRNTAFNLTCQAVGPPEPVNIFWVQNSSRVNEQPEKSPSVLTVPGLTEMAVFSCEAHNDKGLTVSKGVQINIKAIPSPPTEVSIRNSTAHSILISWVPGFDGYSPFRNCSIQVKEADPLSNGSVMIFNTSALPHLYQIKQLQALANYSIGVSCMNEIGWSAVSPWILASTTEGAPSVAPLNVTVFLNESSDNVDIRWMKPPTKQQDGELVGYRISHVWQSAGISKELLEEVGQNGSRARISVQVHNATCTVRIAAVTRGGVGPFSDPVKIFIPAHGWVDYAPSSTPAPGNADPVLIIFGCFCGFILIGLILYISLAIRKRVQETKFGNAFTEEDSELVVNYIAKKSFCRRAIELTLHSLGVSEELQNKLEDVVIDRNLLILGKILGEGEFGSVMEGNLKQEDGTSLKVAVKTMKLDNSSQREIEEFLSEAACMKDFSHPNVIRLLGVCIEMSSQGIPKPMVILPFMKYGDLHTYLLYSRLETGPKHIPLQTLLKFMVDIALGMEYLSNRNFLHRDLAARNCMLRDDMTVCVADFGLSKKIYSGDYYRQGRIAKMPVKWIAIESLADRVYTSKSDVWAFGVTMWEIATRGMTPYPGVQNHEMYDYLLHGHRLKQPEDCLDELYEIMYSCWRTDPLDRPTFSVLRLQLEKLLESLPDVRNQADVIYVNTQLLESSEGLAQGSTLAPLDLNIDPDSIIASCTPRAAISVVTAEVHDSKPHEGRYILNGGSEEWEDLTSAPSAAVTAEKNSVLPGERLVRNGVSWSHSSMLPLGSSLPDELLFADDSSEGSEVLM", "experiment": "flow cytometry, Dylight650-conjugated antibody on CHO-huMerTK OE cells, MFI", "procedure": "as §1, §2"}, "[3]": {"target": "T2, human MerTK overexpressed on CHO cells", "experiment": "flow cytometry on CHO-huMerTK OE cells", "text": "as §2"}, "[4]": {"target": "T3, human MerTK on M2c-differentiated human macrophages (human, UniProt Q12866 21-999)", "T3 construct": "Endogenous MerTK of primary human macrophages; also called M2c-huMacrophages", "T3 sequence": "T2 sequence", "experiment": "flow cytometry on M2c-differentiated human macrophages", "text": "as §2"}}}
{"binder": "B1", "values": [{"measurement": "binding result", "setting": "[1]", "value": "no binding (tested: about 70 nM)"}, {"measurement": "EC50 (read off the curve)", "setting": "[2]", "value": "~4", "unit": "nM"}, {"measurement": "fold higher affinity compared to its monovalent form (monovalent MTK-33.11)", "setting": "[3]", "value": "~10", "unit": "fold"}, {"measurement": "fold higher affinity compared to its monovalent form (monovalent MTK-33.11)", "setting": "[4]", "value": "~5", "unit": "fold"}]}
{"binder": "B2", "values": [{"measurement": "binding result", "setting": "[1]", "value": "no binding (tested: about 70 nM)"}]}
